Measured values published in the supplement of paper PMC9170038.

Experiments:
[1] = system: MS2 coat protein; assay: apparent KD of MS2 coat protein; higher = weaker reporter binding; settings: Eterna round: R101
Procedure: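 RNA-MaP: designed FMN/MS2 RNA switches (84 nt design region) are transcribed on-chip within common flanks and titrated with SNAP-549-labelled MS2 coat protein (about 1-3000 nM) in 100 mM Tris pH 7.5, 80 mM KCl, 4 mM MgCl2, without or with 200 uM FMN. Median apparent KD per design; activation ratio = KD,OFF / KD,ON.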

[2] = system: MS2 coat protein; assay: apparent KD of MS2 coat protein, switch ON state; designed switch direction (-1 OFF switch, 1 ON switch): 1; higher = weaker reporter binding; settings: FMN input: 0 or 200 uM; Eterna round: R93 (includes R88 designs)
Outline: (§1)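 In 100 mM Tris-HCl pH 7.5 with 80 mM KCl and 4 mM MgCl2, and without or with constant ligand, SNAP-549-labelled MS2 coat protein was titrated in twofold steps from 0.7 or 1.5 nM to 3 µM. Per-step times went from 0.8–1.5 h down to 10–20 min. The RNA switches were transcribed on-chip from Illumina sequencing clusters, and apparent KD is the per-design median of normalised cluster binding-curve fits.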

[3] = system: MS2 coat protein; assay: apparent KD of MS2 coat protein, switch OFF state (with FMN for OFF switches, without FMN for ON switches); designed switch direction (-1 OFF switch, 1 ON switch): 1; higher = weaker reporter binding; settings: FMN input: 0 or 200 uM; Eterna round: R93 (includes R88 designs)
Outline: as §1

Sequence | apparent KD of MS2 coat protein ([1]; input ligand: FMN 200 uM) | apparent KD of MS2 coat protein ([1]; input ligand: none) | apparent KD of MS2 coat protein [2] | apparent KD of MS2 coat protein [3]
AAAAAUUCUUAAGGAUAUGACUCCGAAACGGAGUCAGAAGGUGAGGAUCACCCACCUAGCUCAGCGUCGAAAGACGCUGAGCAA [#SharedSequence ExNG1 - 28] (puzzle (switch architecture): Exclusion NG 1) | 12 nM | 10.9 nM | – | –
AAAUAAACUCAAGGAUAUCAGUGGCAAAGCCACUGAGAAGGUGAGGAUCACCCACCUAAGAUCACAGGUGACGAAAGUCACCUG [#SharedSequence ExNG1 - 37] (puzzle (switch architecture): Exclusion NG 1) | 17.6 nM | 11.2 nM | – | –
AAAUAAAUUGAAGGAUAUGACCCUCGAGGUGACUAAAAGUCACCUCGAGGGUCAGAAGGUCGAGGAUCACCCGAUCUAAAUAAA [#SharedSequence SLExNG1: 1-1] (puzzle (switch architecture): Small Loop Exclusion NG 1) | 13.1 nM | 8.27 nM | – | –
AAAUAACUUGAAGGAUAUGACCCUCGAGGUGACUAAAAGUCACCUCGAGGGUCAGAAGGUCGAGGAUCACCCGACCAAGUGAAA [#SharedSequence SLExNG1: 9] (puzzle (switch architecture): Small Loop Exclusion NG 1) | 13.3 nM | 9.17 nM | – | –
GAAAAACAUGAGGAUCACCCAUGUAGAAAUAUGGGAGGAUAUACAAAGACGAGAGUCAAAGUAGAAGGCCUAAAAG [Mat - Same State 1 - Eli mod - D9] | – | – | 28.4 nM | 86.7 nM
GAAAAACAUGAGGAUCACCCAUGUGAGAAUAUGGAAGGAUAUACAAAGACGAAAGUCAAAGUAGAAGGUCUAAAAG [Mat - Same State 1 - Eli mod - D15] | – | – | 28.9 nM | 20.5 nM
GAAAAACAUGAGGAUCACCCAUGUGUAAACAAGGGAGGAUAUACAAAGACGUAAGUCAAAGUAGAAGGCCUAAAAG [Garnet 38] | – | – | 25.6 nM | 47.1 nM
GAAAAACAUGAGGAUCACCCAUGUGUAAAUAUGGGAGGAUAUACAAAGACGGAAGUCAAAGUAGAAGGCCUAAAAG [Mat - Same State 1 - Eli mod - D11] | – | – | 94.3 nM | 111 nM
GACAAACAUGAGGAUCACCCAUGUAGACAUAUGGGAGGAUAUACACAGACGAAAGUCAAAGUAGAAGGCCUACAAG [77%, Mat - Mod of Eli - With 4 more C's] | – | – | 29.3 nM | 91.3 nM
GACAAACAUGAGGAUCACCCAUGUAGACAUAUGGGAGGAUAUACACAGACGAAAGUCACAGUAGAAGGCCUACAAG [77%, Mat - Mod of Eli - With 5 more C's] | – | – | 26.9 nM | 82.4 nM
GACAGACAUGAGGAUCACCCAUGUACAAACGUACAAGGAUAUGUGUGGAAACCGUACUAUACAGAAGGUGUAUGUC [SS1 - 91] | – | – | 42 nM | 80.5 nM
GACUGACAUGAGGAUCACCCAUGUAUUCAAACAUGAGGAUAUAUAACACGUCAUCGACGGAUAGAAGGCAUAGAUG [JR_SS001_Sub1209] | – | – | 117 nM | 162 nM
GACUGACAUGAGGAUCACCCAUGUAUUCGAGCAUGAGGAUAUAUGACACGUCAUCGACGGAUAGAAGGCAUGGAUG [JR_SS001_Sub1211] | – | – | 232 nM | 208 nM
GAGGACAUAGGAUAGGAUAUAUGAAUAAUUACAUGAGGAUCACCCAUGUCCAUUUAUAUGGGAACAUAGAAGGGUUGUAGUUAUC [SameState2 Malc#34] | – | – | 1070 nM | 683 nM
GCCUAACAUGAGGAUCACCCAUGUAGUGGGUUGUUAGGAUAUGGACCACAAAACGCGGUACCAGAAGGAAUAGAAA [Atbima] | – | – | 393 nM | 538 nM
GCCUAACAUGAGGAUCACCCAUGUAGUGGGUUGUUAGGAUAUGGACCGCAAAACACGGUACCAGAAGGAAUAGAAA [Tiquleraat] | – | – | 448 nM | 720 nM
GGAAAACAUGAGGAUCACCCAUGUUAGUGUCAUUAAGGAUAUGGGCUUAAGAAUUUGAGACUAGAAGGUGAUGCGC [Soisla] | – | – | 21.8 nM | 49.2 nM
GGAGCCGGCACCGAGGAUAUUCAUAUUAAAACAUGAGGAUCACCCAUGUAGGCCAGAAGGCCUUGGGAGAAGGCGGAUCGGCUCG [Xeonanis] | – | – | 29.9 nM | 481 nM
GGAGCCGGUACUGAGGAUAUUCAUAUUAAAACAUGAGGAUCACCCAUGUAGGCCAGAAAGCCUUGGGAGAAGGCAGAUCGGCUCG [Bienuslete] | – | – | 17.8 nM | 126 nM
GGAGCCGGUACUGAGGAUAUUCAUAUUAAAACAUGAGGAUCACCCAUGUAGGCCAGAAGGCCUUGGGAGAAGGCAGAUCGGCUCC [Biceusra] | – | – | 20.4 nM | 266 nM

Sequence | apparent KD of MS2 coat protein ([1]; input ligand: FMN 200 uM) | apparent KD of MS2 coat protein ([1]; input ligand: none) | apparent KD of MS2 coat protein [2] | apparent KD of MS2 coat protein [3]
GGGAGACAUGAGGAUCACCCAUGUGAGAAGAGGCGAGGAUAUCGAAAGAAAGAAGAGAAACGAGAAGGCGCGAGAA [salish99-SS1-049] | – | – | 37 nM | 64.4 nM
GGGAGACAUGAGGAUCACCCAUGUGAGAAGAGGCGAGGAUAUCGAAAGAAAGAAGAGAAACGAGAAGGCGCGAGAU [salish99-SS1-053] | – | – | 30.3 nM | 67 nM
GUCCAACAUGAGGAUCACCCAUGUGCAUGACACUGAGGAUAUGGGACUAAAGGUGCUGGACCAGAAGGCAGAAGAA [Diatquorbi] | – | – | 48.3 nM | 94.9 nM
GUGGCGCAGGUACAGGAUAUGUUUCUCGUAACAUGAGGAUCACCCAUGUACCUAUGAGAUUAAAUGCAGAAGGGUGCACGCCACG [Inedor] | – | – | 41.1 nM | 154 nM
GUGGUGCAGGUACAGGAUAUGUUGCUCGUAACAUGAGGAUCACCCAUGUACCUAUGAGAUUAAAUGCAGAAGGGUGCACACCACG [Edtiditele] | – | – | 28.4 nM | 208 nM
UAAAAACAUGAGGAUCACCCAUGUGAAAAUAUGGGAGGAUAUACAAAGACGAGAGUCAAAGUAGAAGGCCUAAAAU [Mat - Same State 1 - Eli mod - D88] | – | – | 15.7 nM | 115 nM
UAAAAUAAAACAUAGGAUAUCAAAAUAAAAACAUGAGGAUCACCCAUGUGAAAACAUGAGAAGGAUGAGAAGGAAAAUAAAAUAA [Meechl SS2 R2 m1] | – | – | 25.7 nM | 51.6 nM
UAACAACAUGAGGAUCACCCAUGUCAAACAAAUCGAGGAUAUGGGCAGGAUUCUUCCUAUCUAGAAGGCGAAAACA [Ricexebi] | – | – | 145 nM | 83.2 nM
UAAGACGUGCAUCAGGAUAUGUUCCGAGGCACAUGAGGAUCACCCAUGUGGACGAAGCCUCGGGCACAGAAGGGAUCACUCAGAC [Laarma] | – | – | 17.2 nM | 20.4 nM
UAGAGACAUGAGGAUCACCCAUGUAGGAUUAUGGGAGGAUAUACAAAGACGAGAGUCAGAGUAGAAGGCCUAGGAA [salish99-ss1-133(!)] | – | – | 24.9 nM | 74.6 nM
UAGAGACAUGAGGAUCACCCAUGUAGGAUUAUGGGAGGAUAUACAAAGACGAGAGUCAGAGUAGAAGGCCUAGGAG [salish99-ss1-135(!)] | – | – | 22 nM | 64.9 nM
UAUAAACAUGAGGAUCACCCAUGUAGAAAUAUGGGAGGAUAUACAAAGACGAAAGUCAAAGUAGAAGGCCUAAUAU [Mat - Same State 1 - Mod - D155] | – | – | 18.9 nM | 55.3 nM
UCAAAACAUGAGGAUCACCCAUGUAGCCUAAAGCGAGGAUAUGGGUUUCUUUAAAGAGUACCAGAAGGCGCCAAAA [Enenala] | – | – | 27.9 nM | 91.1 nM
UCAAAACAUGAGGAUCACCCAUGUAGUCUAAAGCGAGGAUAUGGGUUUCUUUAAAGAGUACCAGAAGGCGCCAAAA [Entibi] | – | – | 23.3 nM | 60.9 nM
UCAGAACCGACAAAGGAUAUAGCGGGUGAGACAUGAGGAUCACCCAUGUAUGCAGAACUCAUCCUCUAGAAGGUUGAGACGGAUA [Maedanon] | – | – | 213 nM | 93.6 nM
UCCACCAUGGUACAGGAUAUGUCAGACCCGACAUGAGGAUCACCCAUGUGCGGUUCUUUUCCAACGCAGAAGGGUGCAUAGGUGG [Xevetia] | – | – | 17.1 nM | 43.9 nM
UGGAAGGAGAGAGAGGAUAUCCAAAGGAAAACAUGAGGAUCACCCAUGUAGAAGGUAGGAAAUUGGGAGAAGGCUCAAGAGAGAG [salish99-ss2-117] | – | – | 17 nM | 27.5 nM
UGGAGACAUGAGGAUCACCCAUGUGAGAAGAGGCGAGGAUAUCGAAAGAAAGAAGAGAAACGAGAAGGCGCGAGCA [salish99-SS1-040] | – | – | 25.9 nM | 40.2 nM
UGUUCGAGUAGUGAGGAUAUUCAUGGGCCCACAUGAGGAUCACCCAUGUAAUGGACCGGGCCGAAGGAGAAGGCGCGUAAAAUUA [Atceve] | – | – | 38.2 nM | 140 nM
UUCUCCACUAGCAAGGAUAUCUAAAACUAAACAUGAGGAUCACCCAUGUGACGACCACACGUAUCAGAGAAGGUGCAGGGUGUAU [JR_SS002_Sub308] | – | – | 45.4 nM | 42.5 nM
